Laboratory results: the DeepSol protein solubility set

Assay: soluble on expression in E. coli; label from the status in PepcDB or PDB records

| Sequence | soluble on expression in E. coli |
| --- | --- |
| MNVTTPEVAFREYQTNCLASYISADPDITPSNLILQGYSGTGKTYTLKKYFNANPNLHAVWLEPVELVSWKPLLQAIARTVQYKLKTLYPNIPTTDYDPLQVEEPFLLVKTLHNIFVQYESLQEKTCLFLILDGFDSLQDLDAALFNKYIKLNELLPKDSKINIKFIYTMLETSFLQRYSTHCIPTVMFPRYNVDEVSTILVMSRCGELMEDSCLRKRIIEEQITDCTDDQFQNVAANFIHLIVQAFHSYTGNDIFALNDLIDFKWPKYVSRITKENIFEPLALYKSAIKLFLSTDDNLSENGQGESAITTNRDDLENSQTYDLSIISKYLLIASYICSYLEPRYDASIFSRKTRIIQGRAAYGRRKKKEVNPRYLQPSLFAIERLLAIFQAIFPIQGKAESGSLSALREESLMKANIEVFQNLSELHTLKLIATTMNKNIDYLSPKVRWKVNVPWEIIKEISESVHFNISDYFSDIHE | soluble |
| MSGRKFSFEVTKTSSAPAATLFRLVTDGGNWATWAKPIVAQSSWARRGDPAPGGIGAIRKLGMWPVFVQEETVEYEQDRRHVYKLVGARTPVQDYFGEVVLTPNASGGTDLRWSGSFTEKVRGTGPVMRAALGGAVRFFAGQLVKAAEREAVRR | soluble |
| MHTTSSPNETLSSWDSSARREQASKNNIYVTLSAKQHPRILQIYGGAYYNPKLERLLENIVRKLTVGLQNSYKSYSLTILNTQSVNAFALPNGSIYITRGMLTLANDSSEVAAILAHEIAHITANHGILRLQKKAELKTTERISSNLLSLSGEKIHKSIENKRKLAQFSRNQELQADSIALEMLKQAGYDPFSLPRFLQSMAAYSLFRSIPGSQNAPLGFLITHPTTPQRIRLAIEKAHKISSANTGNTDRDAFLKSIDGMIFGGSPHTGFVQNNQFIHPQLGITFSVPQNFIIENSAHTVWASGPDKIAIRFDAIPHPAEISASEYLQSGWLAGLDKSSVHPFIIQGLPGAHARARNAQWQFDVVVILFNNHVLRFLTAAPHDSQNFAEIAEKTVQSFRFLSSSQLKKLKPLRIRIVRVQKGESVASLAKKMQNIPHNEKLFRILNSLSPSQALQTGAAVKIITQLEHHHHHH | not soluble |
| MGSDKIHHHHHHMKLKTKTMEWSGNSLKLLDQRKLPFIEEYVECKTHEEVAHAIKEMIVRGAPAIGVAAAFGYVLGLRDYKTGSLTDWMKQVKETLARTRPTAVNLFWALNRMEKVFFENADRENLFEILENEALKMAYEDIEVNKAIGKNGAQLIKDGSTILTHCNAGALATVDYGTALGVIRAAVESGKRIRVFADETRPYLQGARLTAWELMKDGIEVYVITDNMAGWLMKRGLIDAVVVGADRIALNGDTANKIGTYSLAVLAKRNNIPFYVAAPVSTIDPTIRSGEEIPIEERRPEEVTHCGGNRIAPEGVKVLNPAFDVTENTLITAIITEKGVIRPPFEENIKKILEV | not soluble |
| MNEHIESYHRILEEECLSINEFESFAEAYTIVNEFIKLYNTKRIHSSTKYMPPAEFYEHLRISGETVNMRL | not soluble |
| MSLRKLGPVTIDPRRHDAVLFDTTLDATQELVRQLQEVGVGTGVFGSGLDVPIVAAGRLAVRPGRCVVVSAHSAGVTAARESGFALIIGVDRTGCRDALRRDGADTVVTDLSEVSVRTGDRRMSQLPDALQALGLADGLVARQPAVFFDFDGTLSDIVEDPDAAWLAPGALEALQKLAARCPIAVLSGRDLADVTQRVGLPGIWYAGSHGFELTAPDGTHHQNDAAAAAIPVLKQAAAELRQQLGPFPGVVVEHKRFGVAVHYRNAARDRVGEVAAAVRTAEQRHALRVTTGREVIELRPDVDWDKGKTLLWVLDHLPHSGSAPLVPIYLGDDITDEDAFDVVGPHGVPIVVRHTDDGDRATAALFALDSPARVAEFTDRLARQLREAPEGHHHHHH | soluble |
| MGKILVLSDIHYPYCDIDEINKIMLSERPSLTVLLGDIIVSKSEDYRNFIDKLKIRKNIIYVKGDEDKFRGDFDLIKIKNNGKRFILLHGHQYFNENNEYSLAKVLKKMNDNIPPLLFCIFFRIMLRNFKDTIILGHSHAL | soluble |
| MRNFDLIRLTEAQWHDRESAHQLRADRLTADHMKRRRAGISHPVYDFLFEYYPVRVAHMKKWHPGVGVGIEGNPPHSRWKGYTTIDDVTVVDVEALKKKRSSTLHYVSNLLKQTQLNPTHFDCFGLHEWAMVYQTSQPRHALPLRLGAQGSNKVVESHNIRCTHFDAFRFFTEPAVPLNFQVLTRENQPSCEQPGCLHAMMDLYKWSAKLGPLIPGDLWLDTFELAWDCRVLDMEASPYDCTDYGLGIVPIETAEGKAEYVRRQRELSERGQLLRQRLVAELDRIDRFTLTS | not soluble |
| ESNDSGIVVYNAQHENLVKSWVDGFTKDTGIKVTLRNGGDSELGNQLVQEGSASPADVFLTENSPAMVLVDNAKLFAPLDAVTQAQVAQEYRPEHGRWTGIAARSTVFVYNPEKISEAELPKSIMDLAKPEWKGRWAASPSGADFQAIVSAMLELKGEKATLEWLKAMKTNFTAYKGNSTVMKAVNAGQIDGGVIYHYYRFVDQAKTGENSGKTQLHYFKHQDPGAFVSISGGGVLASSKHPKEAQEFVKWITGKSGQDILRTNNAFEYAVGVDAASNPKLVPLKDLDAPKVEPSKLNSKKVVELMTEAGLL | soluble |
| MYTKILGTGSYLPVQVRSNADLEKMVDTSDEWIVTRTGIRERRIAGLDETVATMGFQAAEKALEMAGIDKDDIGLIIVATTSSSHAFPSSACQVQRMLGIKDAASFDLAAACAGFTYALSVADQYVKSGAVKHAIVIGSDVLSRALDPEDRGTIILFGDGAGAVVLGASEQPGIMSTHLHADGRYGELLALPYPDRQQDQPAYVTMAGNEVFKVAVTELAHIVDETLQANNLDRTALDWLVPHQANLRIISATAKKLGMGMDKVVITLDRHGNTSAASVPSAFDEAVRDGRIQRGQLVLLEAFGGGFTWGSALVRF | not soluble |
| GPGSMSCEVTMVGRDRDYLHDVQYGSRTFRLADRRIRAPSGLTVRAVDAEPIKDDVGVDAVLSCVPATCLENDGAHTPPMVRCAQNHADAPMLLFTRGFTREGLTPLEQLGRVSQDLPSKLVVVSGPLFAREWAVTSAAACDGGDANRNSGVTLSFALGGKADVELSRSLQSLTERLWRRESVTWLDGPLAAEILSLVNGCVPLCSMGAGLVSSEYPGSVSATMSYLQHATSATEQLVNGVLGLPLGSPLPSCAVATIAMACTNHAAREFVFGRRLDYHFRHRDAIRAVFPAGSHEALDSTVSGLHMLLRRHAMSSPFYEVLMDTFLTLMRASVAGRELVRLGHYEYRHKLRDEDTVLLRHTEVVDEAMLSGDHQRFDDARRALQMAFGDSSCGAPTMPPL | not soluble |
| MSMLKPSGLKAPTKILKPGSTALKTPTAVVAPVEKTISSEKASSTPSSETQEEFVDDFRVGERVWVNGNKPGFIQFLGETQFAPGQWAGIVLDEPIGKNDGSVAGVRYFQCEPLKGIFTRPSKLTRKVQAEDEANGLQTTPASRATSPLCTSTASMVSSSPSTPSNIPQKPSQPAAKEPSATPPISNLTKTASESISNLSEAGSIKKGERELKIGDRVLVGGTKAGVVRFLGETDFAKGEWCGVELDEPLGKNDGAVAGTRYFQCQPKYGLFAPVHKVTKIGFPSTTPAKAKANAVRRVMATTSASLKRSPSASSLSSMSSVASSVSSRPSRTGLLTETSSRYARKISGTTALQEALKEKQQHIEQLLAERDLERAEVAKATSHVGEIEQELALARDGHDQHVLELEAKMDQLRTMVEAADREKVELLNQLEEEKRKVEDLQFRVEEESITKGDLETQTKLEHARIKELEQSLLFEKTKADKLQRELEDTRVATVSEKSRIMELEKDLALRVQEVAELRRRLESNKPAGDVDMSLSLLQEISSLQEKLEVTRTDHQREITSLKEHFGAREETHQKEIKALYTATEKLSKENESLKSKLEHANKENSDVIALWKSKLETAIASHQQAMEELKVSFSKGLGTETAEFAELKTQIEKMRLDYQHEIENLQNQQDSERAAHAKEMEALRAKLMKVIKEKENSLEAIRSKLDKAEDQHLVEMEDTLNKLQEAEIKKEKFAEASEEAVSVQRSMQETVNKLHQKEEQFNMLSSDLEKLRENLADMEAKFREKDEREEQLIKAKEKLENDIAEIMKMSGDNSSQLTKMNDELRLKERDVEELQLKLTKANENASFLQKSIEDMTVKAEQSQQEAAKKHEEEKKELERKLSDLEKKMETSHNQCQELKARYERATSETKTKHEEILQNLQKTLLDTEDKLKGAREENSGLLQELEELRKQAEKAKAAQTAEDAMQIMEQMTKEKTETLASLEDTKQTNAKLQNELDTLKENNLKNVEELNKSKELLTVENQKMEEFRKEIETLKQAAAQKSQQLSALQEENVKLAEELGRSRDEVTSHQKLEEERSVLNNQLLEMKKRESKFIKDADEEKASLQKSISITSALLTEKDAELEKLRNEVTVLRGENASAKSLHSVVQTLESDKVKLELKVKNLELQLKENKRQLSSSSGNTDTQADEDERAQESQQMIDFLNSVIVDLQRKNQDLKMKVEMMSEAALNGNGDDLNNYDSDDQEKQSKKKPRLFCDICDCFDLHDTEDCPTQAQMSEDPPHSTHHGSRGEERPYCEICEMFGHWATNCNDDETF | soluble |
| MSLQENRLKYCIQRMATVFEVSLSGYYDWLKRGMSKRKQHHNRCELLVKSAHMDTQQSYGHERLHQHLTSQGHDISLYMVRQIKQEHGIYCKRHKRSKVTTDSNHNKPVYPNLLEQQFDVAAPNIAWVSDITYIWTNEGWVYLAAFKDLYSKEIVGYALNKRMTADLVCEALNNAIKYKRPARGLIVHSDRGSQYCSHQYRQIIDKYGFAGSMSRKGNCYDNAPIESFWGQLKNELIYHKVYETRDEAIKDVVRYIEIFYNRQRIQKGLGFKSPTQVFQDFYRQAAEGHHHHHH | not soluble |
| MGSDKIHHHHHHLGRRGTADDEILLTYCPTLFIVGAEGRRFNNEAITELRTSMISPSGLVVVGHSNDMILVPTSMLLRLGISQTVVFRMVLEKILDFLNLEPVRQQEFADLVPIELNNVFDLDSALLKSDKALSGLAFASSTHSASSSAAPSPVGASGRRATVTGAGSEDIAKRRKESIILSQQIAAPSISGPPPPAPSPRTEDRFLAFQNLVASTITTGDDMPRRASMGASPRVIERGDFRDHRPPPPPPLPILQNPVATPMSQQPPLPSPAPPPPRGPVDPASISLI | not soluble |
| MSLGELNVATVTRRPEILLVDSQEVILQRLQQLLSPLPYTLHFARDATQALQLLASREVDLVISAAHLPQMDGPTLLARIHQQYPSTTRILLTGDPDLKLIAKAINEGEIYRYLSKPWDDQELLLALRQALEHQHSERERLRLQDLAQQQNAELKALNTLLEKRVAARTSELQQTADMLDLAYEELKPSYATGAELFSLLVNQRLPADKQTNRRIIELVRAYCKVQGIDPGAQRDLAMAAALHNIGKLSWSDSMMTSPADLLHHHQRERYRAYPAQSESLLMTLEPVQDAARLIRHHQEHWDGSGFPDHLKGDAIPLGSRLLKLAVDFIELQCGLILERHMNSDEALVFIRKYAGRLYDPDLVEGFIQVCAVYLSDVTLGDPSVKVLSTRELAAGMILARNLNADNGMLLLNAGKVLNLPLVDKLIAFETMEGARYSVFVKLPQEQQARAEGHHHHHH | not soluble |
| MGSDKIHHHHHHMKHMNNSVDQQIALFGQSGSGKTALLCSFYGAARDSTQSEGQLFELSAKDDRHTKLMKMYLGMKEDSLAPPQNRFESHKTVFSLKQKNIPIKDAAKSDQVNLTWHDYPGEWFEGGAVTDSEKQDKVETFRNLLGSDVALFLVDGQKLHDYANEEERYLSYLFDGFIENLNQIKDAILEGGKQLQQFPRIWVIALSKADLWPDLQVKDFENLLNKKAGNEIIALRSKLLEFIDNDEAFSFGKDFLLLSSAKFTPGHIDISQRKGVDVLLPLACVLPMQRHLWWQELKVLPINLADILLGNEIAQMGFKIVSKVLKNKVSGTNNKAMAALVFAELVRDMVDQPTELLQKAREEAVGRREFLKAITAEFTRKLNQAEADQVLVRDFA | not soluble |
